Measurements: the DeepSol protein solubility set

test: soluble on expression in E. coli; label from the status in PepcDB or PDB records

Q: Which “soluble on expression in E. coli” value does the source give for “MGSDKIHHHHHHMSSADLLAPYRGPLTVEQVATGMNAATANARRLAQDARLLLANKRWPTAASLAALSIEESGKVVILRRFVTANTDDIKRLWKEYRTHTKKNINWILPELVAKGARRLEDFKPIVDSASDHPDILDAMKQIGFYTDCLGKTNWSRPTEVVDETLAKNLVNAAEVLSPDRNISVRELELWAEHMGPVWNKNLDWMKQALVNWYGAMQAEGLMPAGSNKMQAFVKEGLATDQAKQIGREV” here?
A: Its value is “not soluble”.

Q: Which “soluble on expression in E. coli” value does the source give for “MASTFNPRECKLSKQEGQNYGFFLRIEKDTDGHLIRVIEEGSPAEKAGLLDGDRVLRINGVFVDKEEHAQVVELVRKSGNSVTLLVLDGDSYEKAVKNQVDLKELDQSQREAALNDKKPGPGMNGAVEPCAQPRLCYLVKEGNSFGFSLKTIQGKKGVYLTNIMPQGVAMKAGVLADDHLIEVNGENVENASHEEVVEKVTKSGSRIMFLLVDKETARCHSEQKTQFKRETASLKLLPHQPRVVVIKKGSNGYGFYLRAGPEQKGQIIKDIEPGSPAEAAGLKNNDLVVAVNGKSVEALDHDGVVEMIRKGGDQTTLLVLDKEAESIYSLARFSPLLYCQSQELPNGSVKEGPAPIPAPLEATGSEPTEDAEGHKPKLCRLLKEDDSYGFHLNAIRGQPGSFVKEVQQGGPADKAGLENEDVIIEVNGENVQEEPYDRVVERIKSSGKHVTLLVCGKMAYSYFQAKKIPIVSSMAEPLVAGPDEKGETSAESEHDAHPAKDRTLSTASHSSSNSEDTEM” here?
A: The value was “soluble”.

Q: For “MKKVGEYFLDPNLDPGRDHILYKDDEHMVIYLGTQEGLEDVDVNSYLIVSKGKGILIDPGGYKIFTKVLANVSKYIDPKDIEYIYMCHQDPDVAGSIPLWREISNAKIIIHWLWVRFLPHFGFENIRGYAHELQDEGETLNFGATTLEFIPAHFLHSPGHFTVYDRRSKFLFSGDIGIAFPDERYLVVENMERHIQYMRPLHERLMASNKALRLWVNKVRGLDIEAILPQHGAIIPRRFVPRFLDWLENLKVGVDLMR”, which “soluble on expression in E. coli” value is on record?
A: The value was “soluble”.

Q: With “PQTLYQKLVETHTVARLDSQNVLLYADLHIMNEYTSPQAFAGLAEAGRTVLQPGQNVSVVDHIIPTHPVAIRIIEEPNSALQASNLKKNCERHGIPLFDANNRFQGIEHVIAPELGMIRPGMVVLCGDSHTTTYGALGALGFGIGTSEVEHVLATQTLVYRLAPT” as the sequence, how does the “soluble on expression in E. coli” value read?
A: The value was “not soluble”.

Q: Which “soluble on expression in E. coli” value does the source give for “MFGVKDAIFKIKRSIAGTDSSDSTAYTTASESSPQLKDSHNPFRNKTTSERTIVEEGSLPPVRLNGYLPSTKNKLLTPEMCDEIRTLMPTRIQLYTEWNLLYSLEQHGSSLHSLYSNVAPDSKEFRRVGYVLVIKDRKNGIFGAYSNEAFHPNEHRQYTGNGECFLWKLDKVPDVNISEKEESEQEGKEGKEEGDKEERWRFSGYPYTGVNEFAIYCTSEFLSMGAGDGHYGLLCDDGLLHGVSNPCQTYGNEVLSKEGKKFSIVALEVWRVG” here?
A: The value was “soluble”.

Q: Which “soluble on expression in E. coli” value does the source give for “MFEQIKNNVENAIEALKQGKPVVVLDDYDRENEGDLILPGQKATEENIAFMLEHTSGIICLAMDSKKARELNLTPMVAADQNNSTFTTPFTVTIEAKEGVTTGVSAKDRAHTIQVASKADSKAEELARPGHIFPLIANDKGVLGRNGHTEATVDLMKLSGFNSAGVLCELMNKDGTMMKAAELEAFAKKHDLPLLTIAELYQYRLATENFVTKMASSTIPFKKIGELEMSVYKDNFSGDEVVVLSKPYSGNNPLVRMHSSCITGDIFGSLRCDCQDQLHKGIEMISEEGGFFIYLDQEGRGIGLTNKLKAYNLQMNENMDTLEANLALGLPADARKYDLAIQVLKYNNVNRCRLISNNPEKLAALRNVDIETQPVYCEAFVNSHNRNYLITKKIKAKHTIKGI” here?
A: Its value is “not soluble”.

Q: For “MGSDKIHHHHHHMRDSVFKLSYFLSANEKFHIARVNITSSQDLSLHSHDYAEILWVEKGTGIHHVNGHQFRLSPGDLIMVRPKDRHTFSSSGKGIVIVNVAFPVETLDYFRQRYFEWSNLYFWTTGMFPFQMRLSRDIVKRLSSRAEEAMKYGRSNIQLDSLLLFIFRQITANEKVEDSSEIPVWLFNAIQKFNSPEFFIQGIAGFVTLCDRNIDYVNRIVKLHFHKSLTDLINEFKMQYATTQLSITSMPIKEICTNCGFRNLGHFYKIFRSVYNQTPYEYRRINQLIV”, which “soluble on expression in E. coli” value is on record?
A: The value was “not soluble”.

Q: For “MAGLLKESMRIKMYMEGTVNGHYFKCEGEGDGNPFAGTQSMRIHVTEGAPLPFAFDILAPCCESRTFVHHTAEIPDFFKQSFPEGFTWERTTTYEDGGILTAHQDTSLEGNCLIYKVKVHGTNFPADGPVMKNKSGGWEPSTEVVYPENGVLCGRNVMALKVGDRHLICHHYTSYRSKKAVRALTMPGFHFTDIRLQMLRKKKDEYFELYEASVARYSDLPEKAN”, which “soluble on expression in E. coli” value is on record?
A: Its value is “soluble”.

Q: For “MGSDKIHHHHHHMARSHRLFELMQALRRHRRTVSGASLAQELGVSLRTIRRDVATLQGMGADIDGEPGLGYILKPGFLLPPLSFTEEELQALMIGAQWVSRQTDDKFAFAVRNALAKISAVLPVEMRPTLEDETFYISKPLSVSTTIDLSEIRRALRDQCKLSITLAIEHAPKDAQIIWPIMLGFIEARRHLAAWCEGDSQYRVIDMDDIADAHVLTERYTRNRRQLIKEWRALEVLPCNVRGETC”, which “soluble on expression in E. coli” value is on record?
A: Its value is “not soluble”.

Q: Which “soluble on expression in E. coli” value does the source give for “GGGQCYFIPNQSLKPNECQDLKGVSHPLNSVWKTKDCEECTCGQDAISCCNTAAIPTGYDTNKCQKILNKKTCTYTVVEKKDPGKTCDVTGWVL” here?
A: Its value is “soluble”.

Q: With “AGKTLYGKLWDIHEVARRDDGSSLIYIDRHILHEVTSPQAFEGLRLAGRPLWRVNANIATPDHNVPTTKAERQGSLLSIADTVSRLQVQTLDENCDDFGIFEFKMNDVRQGIVHVIGPEQGATLPGMTVVCGDSHTSTHGAFGALAHGIGTSEVEHVLATQCLVTQKMKN” as the sequence, how does the “soluble on expression in E. coli” value read?
A: Its value is “not soluble”.

Q: Which “soluble on expression in E. coli” value does the source give for “MTETDKKQEQENHAECEDKPKPCCVCKPEKEERDTCILFNGQDSEKCKEFIEKYKECMKGYGFEVPSAN” here?
A: The value was “soluble”.

Q: Which “soluble on expression in E. coli” value does the source give for “MKIADGVYVHFIPTQKYKTNRIVFRMTGSLNKQTIAKRALVSQMLATANQTYPTVQSFKERLASLYGTQLSTKVSTKGLTHSVDIELTYLKDFFIPMNTSLFWEVLGFLMDCLYNPLSIVAQYQNKVFDIEKQNLMTYLDVDTENNYYYSEVQGRELYFVNEALKVPKYGRVELVEAETSFTAYQEFQSMLTKDRIDIFMVGEFDDYQVLRGLHRFPLEGRQVDLQFSYNQSYSKVVKEKIETRQTSQSILQLGYQFPCQYGDKDYFALIVFNGMLGEFAHSALFTKIREKEGLAYSIGSQFDAFTGLLEIYAGIEKSNRNQAMRGIIRELNHIKLGRFSSSLFNQTKKIIRMNALLSEDHALTLVEQHFNKVIFGDKKISLEDWLDKIEKVTKKDVCRIARQVKLQSLFFLEGVS” here?
A: Its value is “not soluble”.

Q: Which “soluble on expression in E. coli” value does the source give for “GSLTTISSILSLKREKPDNLAIILQIDFTKLKEEDSLIVVYNSLKALTIKFARLQFCFVDRNNYVLDYGSVLHKIDSLDSISNLKSKSSSTQFSPIWLKNTLYPENIHEHLGIVAVSNSNMEAKKSILFQDYRCFTSFGRRRPNELKIKVGYLNVDYSDKIDELVEASSWTFVLETLCYSFGLSFDEHDDDDEEDN” here?
A: The value was “soluble”.

Q: For “MSLALVVQKYGGSSVADAERIRRVAERIVATKKQGNDVVVVVSAMGDTTDDLLDLAQQVCPAPPPRELDMLLTAGERISNALVAMAIESLGAHARSFTGSQAGVITTGTHGNAKIIDVTPGRLQTALEEGRVVLVAGFQGVSQDTKDVTTLGRGGSDTTAVAMAAALGADVCEIYTDVDGIFSADPRIVRNARKLDTVTFEEMLEMAACGAKVLMLRCVEYARRHNIPVHVRSSYSDRPGTVVVGSIKDVPMEDPILTGVAHDRSEAKVTIVGLPDIPGYAAKVFRAVARRRRQHRHGAAERLQGRGRQDRHHLHLLPQTSGPPPWKNWTRSETRSASTQLLYDDHIGKVSLIGAGMRSHPGVTATFCEALAAVGVNIELISTSEDQRSRCCAATPNWTRPWSRCMKRSGSAATRRPRCTRGRDGRWACQEGHHHHHH”, which “soluble on expression in E. coli” value is on record?
A: Its value is “not soluble”.

Q: Which “soluble on expression in E. coli” value does the source give for “MQILQVRLKNLNSLVGEWEIDFTDPAFVSDGIFSITGPTGAGKTTVLDAICLALYGRTPRLGKVSKSENEIMSRQTGECFAEVTFAAQSGCFRCHWSQHRAHKKPDGELQNPRHELAEADSGKILETRLTEVGRQIEKITGMDFARFTRSMLLAQGEFAAFLQAAPDERAPILEQITGTEIYSRISIRVHETRVSARRELDRLSAGLNGIQPLT” here?
A: The value was “not soluble”.

Q: With “MSLAKRIVPCLDVHAGRVVKGVNFVNLRDAGDPVEAARAYDEAGADELVFLDISATHEERAILLDVVARVAERVFIPLTVGGGVRSLEDARKLLLSGADKVSVNSAAVRRPELIRELADHFGAQAVVLAIDARWRGDFPEVHVAGGRVPTGLHAVEWAVKGVELGAGEILLTSMDRDGTKEGYDLRLTRMVAEAVGVPVIASGGAGRMEHFLEAFQAGAEAALAASVFHFGEIPIPKLKRYLAEKGVHVRLD” as the sequence, how does the “soluble on expression in E. coli” value read?
A: Its value is “soluble”.

Q: With “MPKDWDAFYRNAPEDRPPAFVVRAYGPFVPQGPVLDLAGGLGRNARYFLQRGHPVVLVERSREALRRLSGTPGLTLVALDLEGADAPQSLPQGPFAGIVMAYYVNRPLLQGLAPLLLPGGLVLVEGFSRKEALRRGRPHSPFYWEGEELLTPPPGLALRAFGEGWMEGYRVYAVYLRP” as the sequence, how does the “soluble on expression in E. coli” value read?
A: The value was “soluble”.

Q: Which “soluble on expression in E. coli” value does the source give for “MELQDLELQLEERLLGLEEQLRAVRMPSPFRSSALMGMCGSRSTDNLSCPSPLNVMEPVTELMQEQSYLKSELGLGLGEMGFEIPPGESSESVFSKQRSESSSICSGPSHANRRTGVPSTASVGKSKTPLVARKKVFRASVALTPTAPSRTGSVQTPPDLESSEEVDAAEGAPEVVGPKSESEVEEGHGKLPSMPAAEEMHKNVEQDELQQVIREIKESIVGEIRREIVSGLLAAVSSSKASNSKQDYHLEHHHHHH” here?
A: The value was “not soluble”.

Q: Which “soluble on expression in E. coli” value does the source give for “MIRKDLQKLEQEGLLKRTYGGAILERQTIHDDNIRPRLMKNLGEKDIIAKLALKEIKDGDFIFLDASTTNYSIASMLLNTKKQVTVVTNMNRIAILFDSHPSIDVICIGGIYNKNLGGTIGSKAIEDVKSYRFHKAFVGVGGINLVEDFISNFNLEEASMKNAIIKSSLKTYLVAENEKFYTDGICEFAKCEDIDFIISDKKPNEEILKLLKERNISIIYLEHHHHHH” here?
A: The value was “soluble”.

Q: Which “soluble on expression in E. coli” value does the source give for “MKLKKLQIEPTTFCTLDCEYCHRKSIPPQDLPLEVLDRVNGVAKEYVIYGYGEPLLYPDFFKRIEGFDGKVVISTNGMLDSDILDLADKVGVSIDVNDKFRKGLEVEKALEVLRKLGERGIAEVVVTKDNLELLPAFFERIAEHGSGMLATNVVASNPAIYEQGVYFECSRITVEKVLGLDESILVEAIKDCSRGGGEALRRYKHLLKEVYSKGYSINLLAIFGRKGRVETAFKAEGVFEMLRDLAGDYGVELIEPSFFGDSKARECPYRDSAFLRVDGKISSCMSFAYTHTEYVDGHYKKVEKFCPGNVLKEDIDDVIGKMAEFERVRADMENFPWCADCPYVEGCWYAETNVDCYANLPSCSECLYSSGIAKCLLGD” here?
A: The value was “not soluble”.

Q: Which “soluble on expression in E. coli” value does the source give for “MAHHHHHHMMLKVRYENFNDLRNDDEMLNISFVAHPCYYSILDLEESELFNKIVYENFCKVAEKVDIYDKNEYLSVYRRHDKKCRELHMLKSWELLKNTYRYKMPVIFKNLKDFDLYNMEKIPFYSINYNKKKKGTKENGFVVRNKKKINIIDKGKCFILDNHMIYSMTPEYIANNISKNILLNTHHIMKGNNILSLKEDDKYVKHQKVNDNPYYFKLRYHYNDDDIYCKDNYSYKRKGISPIKKKRKIEPILYNNKKMDYEEKKRILIYLDPFAGAGGNCNHMNNIFTIGCDINFYRIKQCQHNCNFYNKNVDFILCDFFNLVTHFRKGTIDVIFFSIPWGGPKYKNKKNFELNTEIMDNISIYKCIEVSVELTENLVFYLPRNVCMKELYYLYGYYKELVKNKKCVNYENDDIYKYDRKGEGGKKKKKKKKKKILS” here?
A: Its value is “not soluble”.

Q: With “AHHHHHHGSVKVTFLGHAAFYIEGSKKILIDPFLSGNPVASAKPDDFKSVDLILVTHAHGDHLGDVGTIAKRTGAKVVAMYDLANYIAEKYKGVETIGMNYGPTKVDEVEIVQVPAWHSSSDGKYSIGNACGYIVKLDGVTIYHAGDTYVFKDMELFAELYGPIDVALLPIGGHFTMGVREAAKAVELLKPRHVIPMHYNTWPPIAADPEEFKKLVGEKAKVVILKPGESLEL” as the sequence, how does the “soluble on expression in E. coli” value read?
A: The value was “not soluble”.
